Results: patent US20030154500, “Nucleic acid transfer vector for the introduction of nucleic acid into the DNA of a cell” (Regents of the University of Minnesota, published 2003)

T1: SB transposase N123 (N-terminal DNA-binding domain, residues 1-123) (synthetic (salmonid consensus))
T1 chain: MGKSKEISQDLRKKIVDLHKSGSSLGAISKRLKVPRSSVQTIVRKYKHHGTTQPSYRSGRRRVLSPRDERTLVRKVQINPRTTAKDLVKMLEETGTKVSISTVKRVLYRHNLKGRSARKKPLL

B1: salmonid internal transposase-binding site (dsDNA)
DNA 1: CCAGTGGGTCAGAAGTTTACATACACTAAG
DNA 2: CTTAGTGTATGTAAACTTCTGACCCACTGG
B2: salmonid outer transposase-binding site (dsDNA)
DNA 1: GTTGAAGTCGGAAGTTTACATACACTTAGG
DNA 2: CCTAAGTGTATGTAAACTTCCGACTTCAAC

Biological target: T1, SB transposase N123 (N-terminal …)
Assay: footprint; DNase I, 30-bp protected region within left IR probe
Conditions: tags: C-terminal His tag (pET21a)
Method: In addition to the NLS function, N123 also contains the specific DNA-binding domain of SB, as tested in a mobility-shift assay (FIG. 3B). A 300 bp EcoRI/HindIII fragment of pT comprising the left inverted repeat of the element was end-labeled using [α³²P]dCTP and Klenow. Nucleoprotein complexes were formed in 20 mM HEPES (pH 7.5), 0.1 mM EDTA, 0.1 mg/ml BSA, 150 mM NaCl, 1 mM DTT in a total volume of 10 μl. Reactions contained 100 pg labeled probe, 2 μg poly[dI][dC] and 1.5 μl N123. After 15 min incubation on ice, 5 μl of loading dye containing 50% glycerol and bromophenol blue was added and the samples loaded onto a 5% polyacrylamide gel (Ausubel). DNaseI footprinting was done using a kit from BRL according to the recommendations of the manufacturer. […]
The number of the deoxyribonucleoprotein complexes detected by the mobility-shift assay at increasingly higher N123 concentrations indicated two protein molecules bound per IR (FIG. 3B, right panel), consistent with either two binding sites for transposase within the IR or a transposase dimer bound to a single site. Transposase-binding sites were further analyzed and mapped in a DNasel footprinting experiment. […]

Row | Binder | binding result
1 | B1 | binds
2 | B2 | binds
